# B1: Biotin-RNA N7-meGpppACCCCC-Biotin (ssRNA)
# RNA: ACCCCC
# modifications: 5' N7-methylguanosine cap (m7Gppp, cap-0); cap G not in strand
# Target: nsp16 (2'-O-methyltransferase);nsp10 (SARS-CoV-2;SARS-CoV-2, UniProt P0DTD1;P0DTD1 6799-7096;4254-4392, |)
# Assay: competition
binder,measurement,value
B1,apparent K (half saturation),4.3 µM

# — doi:10.1101/2020.10.14.340034
